Measured values taken from patent publication US20070111259A1 (BIOSITE, published 2007).

T1: biotinylated interleukin 8 (IL8-biotin) (human, UniProt P10145 21-99, reacted with biotin-XX-NHS ester (1 mM); labelled residues not stated)
T1 construct: mature; also called IL-8 labeled with biotin; biotinylated IL-8
T1 sequence: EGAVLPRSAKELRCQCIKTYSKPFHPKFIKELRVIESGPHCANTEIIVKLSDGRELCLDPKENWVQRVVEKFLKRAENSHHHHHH


Columns and labels:
[1] = target: T1, biotinylated interleukin 8 (IL8-biotin); experiment: solution equilibrium with 1e-10 M biotin-IL-8, B/F vs B plot, free Fab by sandwich ELISA
Method: The equilibrium binding constants of individual monoclonal antibodies were determined by analysis of the total and free antibody concentrations after a binding equilibrium was established in the presence of biotinylated IL-8 at 10⁻¹⁰ M in a 1% solution of bovine serum albumin buffered at pH 8.0. […] The supernatant solution was removed from the microtiter wells containing the magnetic particles and the antibody concentration was determined. The concentration of total antibody added to the individual wells was determined by quantifying the antibody in a sample that was not mixed with IL-8. […] When determining the concentration of total antibody in an equilibrium mixture, the antibody concentration is the amount of total antibody in the mixture determined from the assay described below multiplied by the immunoreactive fraction. Similarly, when calculating the free antibody in an equilibrium mixture after the removal of IL-8, the non-immunoreactive fraction of antibody is subtracted from the free antibody concentration determined by the assay described below. The bound fraction, B, is determined by subtracting the free immunoreactive antibody concentration in the mixture, F, from the total immunoreactive antibody concentration in the mixture. […]

[2] = target: T1, biotinylated interleukin 8 (IL8-biotin); experiment: fraction of Fab bound by a large excess of biotin-IL-8, removed on avidin magnetic latex

Row | Binder | Ka [1] [M⁻¹] | % Immunoreactive Protein [2] [%]
1 | M1-21 (Fab, also called M1_21H; M1_21L) heavy: QVQLVQSGGGVVQPGKSLRLSCAASGFTFSYYGMHWVRQVPGKGLEWVAAVWYDGSTTYSPDSVKGRFTISRDDSKNTLYLQMSSLRAEDTAVYYCARDRVGLFDYWGQGTLVTVSSASTKGPSVFPLAPSSKSTSGGTAALGCLVKDYFPEPVTVSWNSGALTSGVHTFPAVLQSSGLYSLSSVVTVPSSSLGTQTYICNVNHKPSNTKVDKKAEPKSHHHHHH light: not shown | 6.6e+10 | 67
2 | M1-10 (Fab, also called M1_10H; M1_10L) heavy: QVQLVQSGGGLVHPGGSLRLSCEGSGFIFRNHPIHWVRQAPGKGLEWVSVSGIGGDTYYADSVKGRFSISRDNAKNSLYLQMNSLRAEDMAVYYCAREYYYGSGSYRVDYYYYGMDVWGQGTTVTVSSASTKGPSVFPLAPSSKSTSGGTAALGCLVKDYFPEPVTVSWNSGALTSGVHTFPAVLQSSGLYSLSSVVTVPSSSLGTQTYICNVNHKPSNTKVDKKAEPKSHHHHHH light: not shown |  | 90
